In paper PMC6996649, “Rational Engineered C-Acyltransferase Transforms Sterically Demanding Acyl Donors” (ACS Catalysis, 2019):

Columns and labels:
Type in all cases: biochemical, Pseudomonas protegens
CCCC(=O)Oc1ccccc1 = system: T1, CCCC(=O)Oc1ccccc1; assay: HPLC assay of resorcinol acylation; details: 10 mM resorcinol as acceptor, 100 mM imidazole, potassium phosphate pH 7.5, 35 °C
T1 construct: PhlABC multi-subunit acyltransferase from codon-harmonized construct, recombinant in E. coli, purified enzyme; with 2,4-diacetylphloroglucinol biosynthesis acyltransferase subunit PhlA; 2,4-diacetylphloroglucinol biosynthesis acyltransferase subunit PhlB
Excerpt: (§1) HPLC assay of resorcinol acylation on PpATaseCH

COCC(=O)Oc1ccccc1 = system: T2, COCC(=O)Oc1ccccc1; assay: HPLC assay of resorcinol acylation; details: 10 mM resorcinol as acceptor, 100 mM imidazole, potassium phosphate pH 7.5, 35 °C
T2 construct: PhlABC multi-subunit acyltransferase from codon-harmonized construct, recombinant in E. coli, purified enzyme; with 2,4-diacetylphloroglucinol biosynthesis acyltransferase subunit PhlA; 2,4-diacetylphloroglucinol biosynthesis acyltransferase subunit PhlB
Excerpt: as §1

CC(=O)c1c(O)cc(O)cc1O = system: T3, CC(=O)c1c(O)cc(O)cc1O; assay: purified protein; details: disproportionation to DAPG, 100 mM potassium phosphate pH 7.5, 35 °C
T3 construct: PhlABC multi-subunit acyltransferase from codon-harmonized construct, recombinant in E. coli, purified enzyme; with 2,4-diacetylphloroglucinol biosynthesis acyltransferase subunit PhlA; 2,4-diacetylphloroglucinol biosynthesis acyltransferase subunit PhlB

CCCC(=O)c1c(O)cc(O)cc1O = system: T4, CCCC(=O)c1c(O)cc(O)cc1O; assay: purified protein; details: disproportionation to 3a (DBPG), 100 mM potassium phosphate pH 7.5, 35 °C
T4 construct: PhlABC multi-subunit acyltransferase from codon-harmonized construct, recombinant in E. coli, purified enzyme; with 2,4-diacetylphloroglucinol biosynthesis acyltransferase subunit PhlA; 2,4-diacetylphloroglucinol biosynthesis acyltransferase subunit PhlB

PpATaseCH (Pseudomonas protegens Pf-5; F148V)
Km (CCCC(=O)Oc1ccccc1): 3200 ± 100 µM | Vmax (CCCC(=O)Oc1ccccc1): 40 µM/min | kcat (CCCC(=O)Oc1ccccc1): 0.012 ± 0.002 s⁻¹ | kcat/Km (CCCC(=O)Oc1ccccc1): 3.7 ± 0.6 M⁻¹ s⁻¹ | Km (COCC(=O)Oc1ccccc1): 5000 ± 1000 µM | Vmax (COCC(=O)Oc1ccccc1): 580 µM/min | kcat (COCC(=O)Oc1ccccc1): 0.188 ± 0.016 s⁻¹ | kcat/Km (COCC(=O)Oc1ccccc1): 38.7 ± 8.5 M⁻¹ s⁻¹ | Km (CC(=O)c1c(O)cc(O)cc1O): 240 ± 90 µM | Vmax (CC(=O)c1c(O)cc(O)cc1O): 820 µM/min | kcat (CC(=O)c1c(O)cc(O)cc1O): 7.2 ± 1.9 s⁻¹ | kcat/Km (CC(=O)c1c(O)cc(O)cc1O): 31000 ± 4000 M⁻¹ s⁻¹ | Km (CCCC(=O)c1c(O)cc(O)cc1O): 540 ± 70 µM | Vmax (CCCC(=O)c1c(O)cc(O)cc1O): 620 µM/min | kcat (CCCC(=O)c1c(O)cc(O)cc1O): 5.3 ± 0.6 s⁻¹ | kcat/Km (CCCC(=O)c1c(O)cc(O)cc1O): 9900 ± 800 M⁻¹ s⁻¹
